Biological target: VEGF165 (UniProt P15692)
Assay: ELISA, plate coated with VEGF, anti-human Fc-HRP detection

Chain of VEGF165 (P15692 other isoform, or with tags, fused parts or gaps limits assumed): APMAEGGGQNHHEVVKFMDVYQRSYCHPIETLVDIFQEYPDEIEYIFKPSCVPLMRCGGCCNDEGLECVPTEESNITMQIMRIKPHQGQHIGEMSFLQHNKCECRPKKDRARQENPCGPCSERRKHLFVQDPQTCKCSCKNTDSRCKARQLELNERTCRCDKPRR

- Kd: 0.5 pM
Substance: VEGF-trap (aflibercept) (Fc fusion)
